Measured values reported in article PMC3836765.

Tests used:
[1] = biological target: MDM2 (human (endogenous in SJSA-1)) (UniProt Q00987)
[2] = biological target: MDMX (human (endogenous in SJSA-1)) (UniProt O15151)
[3] = biological target: MDM2 (human (endogenous in SJSA-1)) (UniProt Q00987); remark: listed apart in the source
[4] = biological target: MDMX (human (endogenous in SJSA-1)) (UniProt O15151); remark: listed apart in the source
[5] = biological target: MDM2 (human (endogenous in SJSA-1)) (UniProt Q00987); remark: listed apart in the source
[6] = biological target: MDMX (human (endogenous in SJSA-1)) (UniProt O15151); remark: listed apart in the source

Chain of MDM2 (human (endogenous in SJSA-1)) (Q00987 whole entry): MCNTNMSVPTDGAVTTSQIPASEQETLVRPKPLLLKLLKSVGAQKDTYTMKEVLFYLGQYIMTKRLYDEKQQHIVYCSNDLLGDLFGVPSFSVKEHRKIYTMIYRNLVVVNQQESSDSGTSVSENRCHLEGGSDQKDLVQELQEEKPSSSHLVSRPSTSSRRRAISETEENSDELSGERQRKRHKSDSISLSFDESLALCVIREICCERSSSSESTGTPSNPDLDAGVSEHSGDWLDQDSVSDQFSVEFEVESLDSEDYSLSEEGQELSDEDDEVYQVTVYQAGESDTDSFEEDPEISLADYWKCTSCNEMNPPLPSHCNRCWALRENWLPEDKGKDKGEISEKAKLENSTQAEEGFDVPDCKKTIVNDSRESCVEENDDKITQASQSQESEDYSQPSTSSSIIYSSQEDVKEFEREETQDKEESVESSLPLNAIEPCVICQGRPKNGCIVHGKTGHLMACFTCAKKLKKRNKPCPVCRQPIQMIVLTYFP
Chain of MDMX (human (endogenous in SJSA-1)) (O15151 whole entry): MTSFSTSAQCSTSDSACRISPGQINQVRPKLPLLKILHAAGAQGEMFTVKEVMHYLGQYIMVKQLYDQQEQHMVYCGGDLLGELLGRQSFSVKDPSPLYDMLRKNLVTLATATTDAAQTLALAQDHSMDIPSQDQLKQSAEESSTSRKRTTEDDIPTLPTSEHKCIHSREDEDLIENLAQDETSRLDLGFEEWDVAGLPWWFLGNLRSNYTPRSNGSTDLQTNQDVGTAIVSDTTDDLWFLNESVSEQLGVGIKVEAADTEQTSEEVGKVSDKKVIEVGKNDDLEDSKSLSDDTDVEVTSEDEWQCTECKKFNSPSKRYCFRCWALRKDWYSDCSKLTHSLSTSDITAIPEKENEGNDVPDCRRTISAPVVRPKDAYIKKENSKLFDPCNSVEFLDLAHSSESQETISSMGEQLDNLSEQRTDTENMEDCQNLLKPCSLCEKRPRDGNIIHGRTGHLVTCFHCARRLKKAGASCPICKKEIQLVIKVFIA

## recombinant human serum albumin fused at its C-terminus to the MDM2/MDMX-binding peptide N8A-PMI (rHSA-PMI), biotinylated (from UniProt P02768 25-608)
[1]
  cytotoxicity in SJSA-1 cells, CyQuant Assay, 24 h, percent cell death relative to 10 uM rHSA-treated cells (concentrations as indicated in Figure 4A): 84 % cell death
[2]
  cytotoxicity in SJSA-1 cells, CyQuant Assay, 24 h, percent cell death relative to 10 uM rHSA-treated cells (concentrations as indicated in Figure 4A): 84 % cell death
[3]
  p53 protein level in SJSA-1 cells after 24 h with 10 uM protein, Western blot densitometry, fold increase: 2.9 fold
[4]
  p53 protein level in SJSA-1 cells after 24 h with 10 uM protein, Western blot densitometry, fold increase: 2.9 fold
[5]
  caspase activation in SJSA-1 cells, Homogeneous Caspase Assay, 24 h, fold change: 7 fold
[6]
  caspase activation in SJSA-1 cells, Homogeneous Caspase Assay, 24 h, fold change: 7 fold

## recombinant human serum albumin fused at its C-terminus to the wild type p53-derived peptide P53i (rHSA-P53i), biotinylated (from UniProt P02768 25-608)
[1]
  cytotoxicity in SJSA-1 cells, CyQuant Assay, 24 h, percent cell death relative to 10 uM rHSA-treated cells (concentrations as indicated in Figure 4A): 60 % cell death
[2]
  cytotoxicity in SJSA-1 cells, CyQuant Assay, 24 h, percent cell death relative to 10 uM rHSA-treated cells (concentrations as indicated in Figure 4A): 60 % cell death
[3]
  p53 protein level in SJSA-1 cells after 24 h with 10 uM protein, Western blot densitometry, fold increase: 1.5 fold
[4]
  p53 protein level in SJSA-1 cells after 24 h with 10 uM protein, Western blot densitometry, fold increase: 1.5 fold
[5]
  caspase activation in SJSA-1 cells, Homogeneous Caspase Assay, 24 h, fold change: < 2 fold
[6]
  caspase activation in SJSA-1 cells, Homogeneous Caspase Assay, 24 h, fold change: < 2 fold
